From doi:10.1101/2024.05.05.592584 (bioRxiv, 2024)

B1: C1520 IgG (antibody, V domains shown)
VH: EVQLVESGGGLVQPGGSLRLACVASGFTFSIYEMNWVRQAPGKGLEWVSYITTSGHARYNADSVKGRFTISRDNSKNSFYLQMNSLRAEDTAIYYCARPQYHYYDTSTYHSYGFDIWGQGTMVTVSS
VL: QLVLTQSPSASASLGASVNLTCTLSSGHNSYAIAWHQQQPEKGPRYLMSLNSDGSHTKGDGIPDRFSGSSSGAERFLTISSLQSEDEADYYCQTWDTGIRVFGGGTRLTVL
notes: copies: 2 + 2
B2: C1596 IgG (antibody, V domains shown)
VH: QVQLVQSGAEVKKPGSSVKVSCKASGGTFINYAVTWVRQAPGQGLEWMGGIIPILGIPNYAQKFQGRVTITADKSTSTAYMELSSLRSEDTAVYYCARVPQAGAAQGHYYYYYGMDVWGQGTTVTVSS
VL: not shown
notes: copies: 2 + 2
B3: C1596 Fab (Fab, V domains shown)
VH: QVQLVQSGAEVKKPGSSVKVSCKASGGTFINYAVTWVRQAPGQGLEWMGGIIPILGIPNYAQKFQGRVTITADKSTSTAYMELSSLRSEDTAVYYCARVPQAGAAQGHYYYYYGMDVWGQGTTVTVSS
VL: not shown
B4: C1533 IgG (antibody, V domains shown)
VH: QVQLVQSGAEVKKPGSSVKVSCKTSGVIFSRNAFSWVRQAPGQGLEWMGRIIPFLDVTNSAQEFQGRVTLNADKSTSTVYMELSSLRSEDTAIYYCARHNGDPYDFWSGYNTWAGGLDVWGQGTTVTVSS
VL: QSVLTQPPSASGTPGQRVTISCSGSGSNIGSNAVNWYQQLPGTAPKLLIYNQNQRPSGVPDRFSGSKSGTSASLAIGGLQSEDEADYYCATWDDNLSGLVFGGGTKLTVL
notes: copies: 2 + 2
B5: C952 IgG (antibody, V domains shown)
VH: EVQLVQSGAEVKKPGESLTISCKDSGNSFTIYWIGWVRQMPGKGLEWMGMIYPGDSGTRYSPSFEGQVTISADESINTAYLQWRSLKASDTAMYYCVRGIAVDWYFDLWGRGTLVTVSS
VL: QSVLTQPPSVSGAPGQRVTISCTGSSSNIGAGFDVHWYQQLPGTAPKLLIYGNNNRPSGVPDRFSGSKSATSASLAITGLQAEDEADYYCQSSDSSLSGLYVFGTGTNVIVL
notes: copies: 2 + 2

Columns and labels:
Assay in all cases: BLI
Conditions in all cases: both partners purified
[1] = biological target: SARS-CoV-2 Wuhan-Hu-1 NTD (SARS-CoV-2 Wuhan-Hu-1, UniProt P0DTC2)
SARS-CoV-2 HV.1 NTD = biological target: T1, SARS-CoV-2 HV.1 NTD (SARS-CoV-2 Omicron HV.1, strain)
T1 chain: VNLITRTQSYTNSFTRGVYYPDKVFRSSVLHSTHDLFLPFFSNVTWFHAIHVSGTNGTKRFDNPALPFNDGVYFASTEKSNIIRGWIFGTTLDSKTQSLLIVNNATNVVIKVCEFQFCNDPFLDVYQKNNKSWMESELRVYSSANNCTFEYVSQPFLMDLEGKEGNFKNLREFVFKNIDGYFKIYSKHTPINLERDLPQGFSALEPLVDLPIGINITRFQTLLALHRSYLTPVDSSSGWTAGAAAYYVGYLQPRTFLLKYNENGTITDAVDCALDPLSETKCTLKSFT

SARS-CoV-2 RBD protein = SARS-CoV-2 RBD protein (SARS-CoV-2 Wuhan-Hu-1, UniProt P0DTC2)
[2] = biological target: SARS-CoV-2 Wuhan-Hu-1 NTD protein (SARS-CoV-2 Wuhan-Hu-1, UniProt P0DTC2)
[3] = biological target: SARS-CoV-2 RBD-SD1 protein (SARS-CoV-2, Wuhan-Hu-1 lineage (GenBank …, UniProt A0A679G9E9))
[4] = biological target: SARS-CoV-2 Wuhan-Hu-1 RBD (SARS-CoV-2 Wuhan-Hu-1, UniProt P0DTC2)

Binder | Kd [1] [nM] | koff [1] [s⁻¹] | kon [1] [M⁻¹ s⁻¹] | also measured
B1 | 24.8 | 0.000393 | 15900 | 
B2 | 125 |  |  | Kd (SARS-CoV-2 HV.1 NTD): 553 nM
B3 |  |  |  | binding result (SARS-CoV-2 RBD protein): no binding; Kd [2]: 160 nM; binding result [3]: no binding
B4 | 17.1 | 0.000547 | 32000 | 
B5 |  |  |  | Kd [4]: 6.35 nM; koff [4]: 0.00176 s⁻¹; kon [4]: 278000 M⁻¹ s⁻¹
